Like-named read-outs stand apart in the source and are kept apart here.

The term koff denotes the first-order rate constant of dissociation. Low readings indicate a long-lived complex, high ones a short-lived complex. A word on the Kd: it is the concentration at which binding is half-saturated. A lower Kd goes with a tighter complex. In general, EC50 refers to the concentration at which the effect is half-maximal. A lower EC50 goes with a more potent agent.

The target of experiment [1] is Kp1 2G02. Put plainly: BLI. In general terms: BLI is a label-free optical method that tracks binding on a fibre tip over time.
Experiment [2] concerns the target Kp1 1A02. Put plainly: BLI.
In experiment [3] the target is Ec1 H9. Put plainly: BLI.
Experiment [4] concerns the target Kp1 1C01. Put plainly: BLI.
Experiment [5] deals with Kp1 2E02. Put plainly: BLI.
In experiment [6] the target is Kp1 2E08. Put plainly: BLI.
In experiment [7] the target is Kp1 1B03. Put plainly: BLI.
Experiment [8] has as its target Ec1 C12. Put plainly: BLI.
For experiment [9], the target named is Kp1 2D07. Put plainly: BLI.
Experiment [10] addresses Kp1 2H07. Put plainly: BLI.
For experiment [11], the target named is T1, Kp FimHLD.
T1 chain: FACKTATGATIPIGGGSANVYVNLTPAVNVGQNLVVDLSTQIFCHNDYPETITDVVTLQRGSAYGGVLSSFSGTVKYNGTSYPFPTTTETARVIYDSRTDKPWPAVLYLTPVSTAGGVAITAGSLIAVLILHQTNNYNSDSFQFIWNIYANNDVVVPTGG
Put plainly: ELISA. A general note: ELISA stands for enzyme-linked immunosorbent assay.

In experiment [12] the target is Ec FimHLD. Put plainly: ELISA.
For experiment [13], the target named is T2, Ec FmlHLD.
T2 chain: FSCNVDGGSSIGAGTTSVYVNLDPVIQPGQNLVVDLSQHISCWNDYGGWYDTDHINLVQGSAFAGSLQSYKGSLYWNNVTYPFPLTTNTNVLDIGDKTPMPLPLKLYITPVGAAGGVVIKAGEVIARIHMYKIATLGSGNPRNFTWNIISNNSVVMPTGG
Put plainly: ELISA.

Experiment [14] deals with T3, E. coli FimH lectin domain truncate (UT189) (E. coli (UT189)).
T3 chain: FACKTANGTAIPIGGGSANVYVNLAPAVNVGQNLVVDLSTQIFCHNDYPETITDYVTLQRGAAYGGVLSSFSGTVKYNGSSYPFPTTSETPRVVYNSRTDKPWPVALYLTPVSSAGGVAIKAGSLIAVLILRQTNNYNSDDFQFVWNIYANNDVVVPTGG
Put plainly: BLI.

The target in experiment [15] is T3, E. coli FimH lectin domain truncate …. Put plainly: BLI.
Experiment [16] has as its target T4, FimGNTEH (E. coli, UniProt P08190 24-37).
T4 sequence (P08190 whole entry, looked up): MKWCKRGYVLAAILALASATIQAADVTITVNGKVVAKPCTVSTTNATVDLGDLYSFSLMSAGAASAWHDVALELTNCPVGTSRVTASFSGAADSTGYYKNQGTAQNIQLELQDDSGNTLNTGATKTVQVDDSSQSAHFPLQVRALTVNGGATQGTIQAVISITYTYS
Put plainly: BLI.

The target in experiment [17] is T5, FimGnteH (E. coli, UniProt P08190 24-37).
T5 sequence (P08190 whole entry, looked up): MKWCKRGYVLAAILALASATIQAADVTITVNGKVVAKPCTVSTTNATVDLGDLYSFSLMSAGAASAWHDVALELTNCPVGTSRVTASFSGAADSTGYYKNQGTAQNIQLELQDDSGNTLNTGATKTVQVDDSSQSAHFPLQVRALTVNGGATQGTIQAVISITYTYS
Put plainly: BLI.

B1: FimLD (other)
chain: FACKTANGTAIPIGGGSANVYVNLAPAVNVGQNLVVDLSTQIFCHNDYPETITDYVTLQRGAAYGGVLSSFSGTVKYNGSSYPFPTTSETPRVVYNSRTDKPWPVALYLTPVSSAGGVAIKAGSLIAVLILRQTNNYNSDDFQFVWNIYANNDVVVPTGG
B1: the koff in experiment [1] was 1.3e-05 s⁻¹. The Kd worked out at 0.7 nM in [2]; 0.2 nM in [3]; 3.4 nM in experiment [4]; 0.4 nM in experiment [5]; 1 nM in experiment [6]; 4.9 nM in experiment [7]. Also, the equilibrium dissociation constant (Kd) in experiment [8] was determined as 2.7 nM; in experiment [9], 1.5 nM; in experiment [10] it was 1 nM.

B2: Ec1 F7 (antibody, V domains shown)
VH: EVQLQQPGPVLVKPGPSVKISCKASGFTFTDYFIHWVKQSHGKSLEWIGLVSPYNGGTYYNQQFKGKATLTVDTSSSTAYMDLNSLTSEDSAVYYCTRLLRGYWYFDVWGTGTTVTVSS
VL: QIVLTQSPALMAASPGEKVTITCSVSSSIGSSNLHWYQQKSETSPKPWIYGTSNLASGVPVRFSGSGSGTSYSLTISSMEAEDAATYYCQQWSTYPYTFGGGTKLEIKR
In the case of B2, the EC50 in experiment [11] stood at 0.0078 µg/mL; in experiment [12] it was 0.0109 µg/mL; in experiment [13], 0.0083 µg/mL.

B3: Kp 2H07 (antibody, V domains shown)
VH: EVQLQQSGPVLVKPGPSVNISCKASGFTFTDYYIHWVKQSHGKSLEWIGLVYPYSGGTYYNQKFKGKATLTVDASSSTAYMELGSLTSEDSAVYYCARLGDNFYYFDYWGQGTTLTVSS
VL: QIVLTQSPTLMAASPGEKVTITCSVSSSISSSNLHWYQQKSETSPKPWIYGTSNLASGVPVRFSGSGSGTSYSLTISSMEAEDAATYYCQQWRSYPYTFGGGTKLEIKR
For the molecule B3, the EC50 was found to be 0.0137 µg/mL in experiment [11], 0.0104 µg/mL in [12] and 2.72 µg/mL in experiment [13].

B4: Kp 2D10 (antibody, V domains shown)
VH: EVQLQQSGAELVKPGASVKLSCKASGYTFTTYWMHWMKQWPGQGLEWIGLIHPNSGSTYYNEKFKSKATLTVDKSSSTAYMQLSSLTSEDSAVYYCARFEELWGGYWYFDVWGTGTTVTVSS
VL: QIVLTQSPALMAASPGEKVTITCSVSSSISSSNLHWYQQKSETSPKPWIYGTSNLASGVPVRFSGSGSGTSYSLTISSMEAEDAATYYCQQWSSYPYTFGGGTKLEIKR
Turning to B4, the figures for the 50% effective concentration (EC50) in [11], in experiment [12] and in experiment [13] were 0.0109 µg/mL, 0.0119 µg/mL and 10.1 µg/mL, respectively.

B5: Kp1 2H04 Fab (Fab, V domains shown)
VH: EVQLQQSGAELVKPGASVKLSCKASGYTFTSYWMHWVKQRPGQGLEWIGLIHPNSSSTYYNEKFKTRATLTVDKSSSTAYMQLSSLTSEDSAVYYCARLGYGNSYWYFDVWGTGTTVTVSS
VL: QIVLTQSPALMAASPGEKVTITCSVSSSISSSNLHWYQQKSETSPKPWIYGTSNLASGVPIRFSGSGSGTSYSLTISSLEAEDAATYYCQQWRSYPWTFGGGTKLEIKR
On to B5, for which the koff in experiment [14] and in [15] was 2.1e-05 s⁻¹ throughout.

B6: Ec H9 (antibody, V domains shown)
VH: EVQLQQSGPVLVKPGPSVKISCKASGFTFTDYFVHWVKQSHGKSLEWIGLVSPYNGGTYYNQQFKGKATLTVDTSSSTAYMDLNSLTSEDSAVYYCARLLRGYWYFDVWGTGTTVTVSS
VL: QIVLTQSPALMAASPGEKVTITCSVSSSISSSTLHWYQQKSETSPKPWIYGTSNLASGVPVRFGGSGSGTSYSLTISSMEAEDAATYYCQQWSTYPYTFGGGTKLEIKR
With B6, the figures for the EC50 in experiment [11], in experiment [12] and in experiment [13] were 0.0243 µg/mL, 0.0301 µg/mL and 0.015 µg/mL, respectively.

B7: Kp1 2H04 (antibody, V domains shown)
VH: EVQLQQSGAELVKPGASVKLSCKASGYTFTSYWMHWVKQRPGQGLEWIGLIHPNSSSTYYNEKFKTRATLTVDKSSSTAYMQLSSLTSEDSAVYYCARLGYGNSYWYFDVWGTGTTVTVSS
VL: QIVLTQSPALMAASPGEKVTITCSVSSSISSSNLHWYQQKSETSPKPWIYGTSNLASGVPIRFSGSGSGTSYSLTISSLEAEDAATYYCQQWRSYPWTFGGGTKLEIKR
B7: the EC50 in experiment [11] came out at 0.0096 µg/mL; in experiment [12], 0.0178 µg/mL; in experiment [13], 0.0154 µg/mL.

B8: Kp1 1A02 (antibody, V domains shown)
VH: EVQLQQSGPVLVKPGPSMKISCKASGFTFTDYYIHWVRQSHGKSLEWIGLVSPYNGGTYYNQKFKGKATLTVDSSSSTAYMELSSLTSEDSAVYYCARLGYYGDWYYFDYWGQGTPLTVSS
VL: QIVLTQSPALMATSPGEKVTITCSVSSSISSSNLNWYQQKSETSPKPWIYGTSNLASGVPVRFSGSGSGTSYSLTISSMEAEDAATYYCQQWSSYPYTFGGGTKLEIKR
As to B8, the EC50 in experiment [11] is 0.0185 µg/mL; in [12] it was 0.0144 µg/mL; in experiment [13] it was 2.1 µg/mL.

B9: Ec1 F7 (Fab, V domains shown)
VH: EVQLQQPGPVLVKPGPSVKISCKASGFTFTDYFIHWVKQSHGKSLEWIGLVSPYNGGTYYNQQFKGKATLTVDTSSSTAYMDLNSLTSEDSAVYYCTRLLRGYWYFDVWGTGTTVTVSS
VL: QIVLTQSPALMAASPGEKVTITCSVSSSIGSSNLHWYQQKSETSPKPWIYGTSNLASGVPVRFSGSGSGTSYSLTISSMEAEDAATYYCQQWSTYPYTFGGGTKLEIKR
As to B9, the Kd in [16] and in [17] was 0.7 nM in each case.

B10: Kp1 2E02 (antibody, V domains shown)
VH: EVQLQQSGPVLVKPGPSVKISCKASGFTFTDYYIHWVKRSHGKSLEWIGLVSPYNGGTFYNQKFKGKATLTVDTSSNTAYMELTSLTSEDSAVYYCARLGVNWYFDVWGTGTTVTVSS
VL: QIVLTQSPALMAASPGEKVTLTCSVSSSISSSTLHWYQQKSETSPKPWIYGTSNLASGVPVRFSGSGSGTSYSLTISSMEAEDAATYYCQQWSTYPYTFGGGTKLEIKR
For B10, the EC50 in experiment [11] was determined as 0.0127 µg/mL; in [12], 0.0127 µg/mL; in experiment [13] it was 0.0097 µg/mL.

B11: Kp1 1B03 (antibody, V domains shown)
VH: EVQLQQSGAELVKPGASVKLSCKASGYTFTSYWMHWVQQRPGQGLEWIGLIHPIGGGTHYNEKFKNKATLTVDKSSSTAYMQLSSLTSEDSAVYYCARLGTGPYYFDYWGQGTTLTVSS
VL: QIVLTQSPALMAASPGEKVTITCSVSSSISSSTLDWYQQKSETSPKPWVYGTSNLASGVPVRFSGSGSGTSYSLTISSMEAEDAATYYCQQWSSYPWTFGGGTKLEIKR
For B11, the 50% effective concentration (EC50) in [11] stood at 0.0125 µg/mL; in experiment [12], 0.0092 µg/mL; in experiment [13], 3.06 µg/mL.

B12: Kp2 2C07 (Fab, V domains shown)
VH: EVKLVESGEGLVKPGGSLKLSCAASGFTFSSYAMSWVRQTPEKRLDWVAYISSGGDHIYYADTVKGRFTISRDNARNTLYLQMSSLKSEDTAMYYCTRDTGYYVSRYFDVWGTGTTVTVSS
VL: DIVMTQSQKFMSTSVGDRVSVTCKASQNVVTNVAWYQQKSGQSPKVVIYSASFRSSGVPDRFTGSGSGTDFTLTISNVQSEDLAEYFCHQYNSHPLTFGGGTKLEIKR
As to B12, the Kd in experiment [16] and in [17] was 9.9 nM in each case.

B13: Kp 1A09 (antibody, V domains shown)
VH: EVQLQQPGAELVKPGASVKLSCKASGYTFTSYWMHWVKQRPGQGLEWIGLIHPNSGSTYYNEKFKNKATLTVDKSSSTAYMQLSSLTSEDSAVYYCARWDDSYWYFKVWGTGTTVTVSS
VL: QIVLTQSPAILSASPGEKVTMTCRASSSVSYMHWYQQKPGSSPKPWIYATSNLASGVPARFSGSGSGTSYSLTISRVEAEDAATYYCQQWSSNPYTFGGGTKLEIKR
B13: the EC50 is 0.0161 µg/mL in experiment [11], 0.0135 µg/mL in experiment [12] and 0.018 µg/mL in experiment [13].

B14: Kp 1E07 (antibody, V domains shown)
VH: EVQLQQPGAELVKPGASVKLSCKASGYTFTSYWMHWVKQRPGQGLEWIGLIHPNSGSTYYNEKFKNKATLTVDKSSSTAYMQLSSLTSEDSAVYYCARWDDSYWYFKVWGTGTTVTVSS
VL: QIVLTQSPAILSASPGEKVTMTCRASSSVSYMHWYQQKPGSSPKPWIYATSNLASGVPARFSGSGSGTSYSLTISRVEAEDAATYYCQQWSSNPYTFGGGTKLEIKR
B14: the concentration giving a half-maximal response (EC50) in experiment [11] was determined as 0.0115 µg/mL; in [12], 0.0094 µg/mL; in [13], 0.0117 µg/mL.

The values are drawn from US20250304662A1 (published 2025).
